We go through one molecule from PMC3656841.

In this test the target is T1, Bacillus subtilis DNA Ligase D (BsuLigD) (B. subtilis) (UniProt O34398).
T1 sequence: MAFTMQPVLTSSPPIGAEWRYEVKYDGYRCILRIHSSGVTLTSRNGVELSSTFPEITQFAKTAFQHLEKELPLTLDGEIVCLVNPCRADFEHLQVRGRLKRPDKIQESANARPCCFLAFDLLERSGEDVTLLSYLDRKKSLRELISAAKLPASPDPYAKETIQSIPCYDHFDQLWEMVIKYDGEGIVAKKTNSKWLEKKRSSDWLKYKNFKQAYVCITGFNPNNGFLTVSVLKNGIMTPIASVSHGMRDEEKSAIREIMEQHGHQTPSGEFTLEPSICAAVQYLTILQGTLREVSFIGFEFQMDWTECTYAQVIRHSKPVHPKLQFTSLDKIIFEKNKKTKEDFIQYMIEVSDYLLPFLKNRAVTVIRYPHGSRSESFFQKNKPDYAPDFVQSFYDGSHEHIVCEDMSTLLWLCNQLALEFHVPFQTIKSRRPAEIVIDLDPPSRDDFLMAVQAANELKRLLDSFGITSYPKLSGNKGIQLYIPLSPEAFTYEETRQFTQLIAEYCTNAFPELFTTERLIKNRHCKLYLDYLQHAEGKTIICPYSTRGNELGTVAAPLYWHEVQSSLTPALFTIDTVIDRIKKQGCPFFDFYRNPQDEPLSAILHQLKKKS

B1: Bacillus subtilis Ku (BsuKu) (natural protein)
chain: MNRTPSLHTKEKKGFIDMHTMWKGSISFGLVNIPIKLYAATEDKDIKLRSLHKEDHAPIKYEKVCTNCEKTLSPDEIVKGYEYVKGKYVVLTDEDLKSLKQEHEEKAVEIVDFVQLQEIDPIYFNRSYFVGPGDNGTKAYTLLREALRSTGKIGIANMTIRSKQQLAILRVYENCIVMESIHYPDEVRSAAQVPGVPDQSNVNDKELQTAITLIDELTAKFEPEKYEDTYRQALLQRVNDKLENKETAVTPDKAPPREDVIDLVSALQASIDRTRRPNRETPAAAPAQAAEPKGAGDKKQKTTRKKASGTS
Turning to B1, the primer usage by BsuLigD (percentage of extended primers against reaction time) on a gapped molecule, 10 ng BsuLigD, 10 µM NTPs, without or with 40 ng of BsuKu was 3 fold.
